{"source": "patent US8414892", "key": {"[1]": {"molecular_target": "HLA class I (HLA A, B, C) (human)", "experiment": "indirect immunofluorescence, U2OS cells"}, "[2]": {"molecular_target": "HLA class I (HLA A, B, C) (human)", "experiment": "indirect immunofluorescence"}, "[3]": {"molecular_target": "HLA class I (HLA A, B, C) (human)", "experiment": "indirect immunofluorescence, U2OS cells recultured at 37 C after antibody binding"}, "monoclonal antibody 8H9 [4]": {"molecular_target": "monoclonal antibody 8H9", "sequence (VH, as listed by the source limits assumed, chain 1 of 2)": "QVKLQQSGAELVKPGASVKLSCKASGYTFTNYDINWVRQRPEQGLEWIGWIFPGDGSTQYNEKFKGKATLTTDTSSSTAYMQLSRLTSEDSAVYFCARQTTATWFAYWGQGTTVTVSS", "sequence (VL, as listed by the source limits assumed, chain 2 of 2)": "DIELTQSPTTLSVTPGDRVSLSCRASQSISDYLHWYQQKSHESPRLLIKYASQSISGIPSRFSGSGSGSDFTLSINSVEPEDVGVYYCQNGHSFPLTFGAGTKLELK", "experiment": "ELISA, MoAb coated; ++ = OD 1~2"}, "HOPC-1": {"molecular_target": "HOPC-1", "experiment": "ELISA, MoAb coated"}, "MoAb R24": {"molecular_target": "MoAb R24", "experiment": "ELISA, MoAb coated"}, "FCOPC21": {"molecular_target": "FCOPC21", "experiment": "ELISA, MoAb coated"}, "MOPC 104E": {"molecular_target": "MOPC 104E", "experiment": "ELISA, MoAb coated"}, "TIB114": {"molecular_target": "TIB114", "experiment": "ELISA, MoAb coated"}, "MOPC 21": {"molecular_target": "MOPC 21", "experiment": "ELISA, MoAb coated"}, "UJ 13A": {"molecular_target": "UJ 13A", "experiment": "ELISA, MoAb coated"}, "MOPC 315": {"molecular_target": "MOPC 315", "experiment": "ELISA, MoAb coated"}, "MoAb 3F8": {"molecular_target": "MoAb 3F8", "experiment": "ELISA, MoAb coated"}, "[5]": {"molecular_target": "8H9 scFv-human gamma1-CH2-CH3 chimeric antibody (human)", "experiment": "FACS inhibition, 5 ug/ml 8H9-scFv-Fc on HTB82 cells"}, "monoclonal antibody 8H9 [6]": {"molecular_target": "monoclonal antibody 8H9", "experiment": "FACS inhibition, 5 ug/ml 8H9 on HTB-82 cells"}, "monoclonal antibody 8H9 [7]": {"molecular_target": "monoclonal antibody 8H9", "experiment": "FACS inhibition, 5 ug/ml 8H9 on LAN-1 cells"}}, "data": [{"substance": "anti-HLA A, B, C antibody HB-95", "values": [{"measurement": "loss of binding after 48 h at 37 C", "setting": "[1]", "result": 89, "unit": "%"}, {"measurement": "loss of binding after 48 h at 37 C", "setting": "[2]", "result": 85, "unit": "%"}, {"measurement": "relative immunofluorescence remaining after 48 h", "setting": "[3]", "result": 11, "unit": "%"}]}, {"substance": "rat anti-8H9 anti-idiotypic monoclonal antibody 2E9", "values": [{"measurement": "OD", "setting": "monoclonal antibody 8H9 [4]", "result": "1 to 2", "unit": "od"}, {"measurement": "OD", "setting": "HOPC-1", "result": "< 0.5", "unit": "od"}, {"measurement": "OD", "setting": "MoAb R24", "result": "< 0.5", "unit": "od"}, {"measurement": "OD", "setting": "FCOPC21", "result": "< 0.5", "unit": "od"}, {"measurement": "OD", "setting": "MOPC 104E", "result": "< 0.5", "unit": "od"}, {"measurement": "OD", "setting": "TIB114", "result": "< 0.5", "unit": "od"}, {"measurement": "OD", "setting": "MOPC 21", "result": "< 0.5", "unit": "od"}, {"measurement": "OD", "setting": "UJ 13A", "result": "< 0.5", "unit": "od"}, {"measurement": "OD", "setting": "MOPC 315", "result": "< 0.5", "unit": "od"}, {"measurement": "OD", "setting": "MoAb 3F8", "result": "< 0.5", "unit": "od"}, {"measurement": "concentration of 2E9 giving complete inhibition of 8H9-scFv-Fc staining", "setting": "[5]", "result": 1, "unit": "µg/mL"}, {"measurement": "concentration of 2E9 giving complete inhibition of 8H9 staining", "setting": "monoclonal antibody 8H9 [6]", "result": 10, "unit": "µg/mL"}, {"measurement": "concentration of 2E9 without inhibition of 8H9 staining", "setting": "monoclonal antibody 8H9 [6]", "result": 2, "unit": "µg/mL"}, {"measurement": "concentration of 2E9 giving almost complete inhibition of 8H9 staining", "setting": "monoclonal antibody 8H9 [7]", "result": 10, "unit": "µg/mL"}, {"measurement": "concentration of 2E9 without inhibition of 8H9 staining", "setting": "monoclonal antibody 8H9 [7]", "result": 2, "unit": "µg/mL"}]}]}
